The source of these data is patent US20120316071A1 (published 2012).

Residue numbers refer to the chain shown, from its start. In names and notes the source's numbering stands.

Assay [1] addresses T1, rHuman HGF R/c-MET/Fc Chimera, CF (R&D Systems Cat#358-MT/CF) (human, UniProt P08581 25-932). In words: ECL Multispot (MSD), antigen spotted on plate, Fab in solution; blank spot 256.
Assay [2] addresses T2, rHuman Notch-1/Fc Chimera, CF (R&D Systems Cat#3647-TK) (human).
T2 chain: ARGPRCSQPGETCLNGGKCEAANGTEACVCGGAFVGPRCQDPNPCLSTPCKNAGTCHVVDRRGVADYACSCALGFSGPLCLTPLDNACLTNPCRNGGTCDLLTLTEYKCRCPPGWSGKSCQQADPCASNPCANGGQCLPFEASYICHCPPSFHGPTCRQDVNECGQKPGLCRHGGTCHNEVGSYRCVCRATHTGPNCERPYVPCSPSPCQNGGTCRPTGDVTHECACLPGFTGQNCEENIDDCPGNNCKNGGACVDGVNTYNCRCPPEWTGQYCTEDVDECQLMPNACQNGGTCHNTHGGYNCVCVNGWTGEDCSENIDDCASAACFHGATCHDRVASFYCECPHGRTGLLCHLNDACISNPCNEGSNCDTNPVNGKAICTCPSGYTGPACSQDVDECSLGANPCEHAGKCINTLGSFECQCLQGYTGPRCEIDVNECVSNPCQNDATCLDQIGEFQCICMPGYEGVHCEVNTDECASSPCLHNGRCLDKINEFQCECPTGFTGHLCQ
The description is as above.

Assay [3] concerns the target T3, rHuman CD44/Fc Chimera, CF (R&D Systems Cat#3660-CD) (human, UniProt P16070 21-220). Described as above.
Assay [4] has as its target T4, rHuman P-Cadherin/Fc Chimera, CF (R&D Systems Cat#861-PC) (human, UniProt P22223 108-654). The assay is described as above.
Assay [5] concerns the target T5, rHuman Erythropoietin R/Fc Chimera, CF (R&D Systems Cat#963-ER) (human, UniProt P19235 25-250). The description is as above.
Assay [6] has as its target T1, rHuman HGF R/c-MET/Fc Chimera, CF (R&D …). The assay is described as follows: ECL Multispot (MSD), antigen spotted on plate, Fab in solution; blank spot 438.
Assay [7] deals with T2, rHuman Notch-1/Fc Chimera, CF (R&D …). The description is as above.
The target of assay [8] is T3, rHuman CD44/Fc Chimera, CF (R&D Systems …). The assay is described as above.
The target in assay [9] is T4, rHuman P-Cadherin/Fc Chimera, CF (R&D …). Described as above.
Assay [10] has as its target T5, rHuman Erythropoietin R/Fc Chimera, CF …. The assay is described as above.
For assay [11], the target named is T2, rHuman Notch-1/Fc Chimera, CF (R&D …). The assay is described as follows: ECL Multispot (MSD), antigen spotted on plate, Fab in solution; blank spot 331.
Assay [12] concerns the target T3, rHuman CD44/Fc Chimera, CF (R&D Systems …). The description is as above.
The target in assay [13] is T4, rHuman P-Cadherin/Fc Chimera, CF (R&D …). The assay is described as above.
Assay [14] addresses T5, rHuman Erythropoietin R/Fc Chimera, CF …. The description is as above.
Assay [15] deals with T1, rHuman HGF R/c-MET/Fc Chimera, CF (R&D …). In words: ECL Multispot (MSD), antigen spotted on plate, Fab in solution; blank spot 479.
In assay [16] the target is T2, rHuman Notch-1/Fc Chimera, CF (R&D …). Described as above.
Assay [17] deals with T3, rHuman CD44/Fc Chimera, CF (R&D Systems …). Described as above.
The target of assay [18] is T4, rHuman P-Cadherin/Fc Chimera, CF (R&D …). Described as above.
The target of assay [19] is T5, rHuman Erythropoietin R/Fc Chimera, CF …. The assay is described as above.
For assay [20], the target named is T1, rHuman HGF R/c-MET/Fc Chimera, CF (R&D …). In words: ECL Multispot (MSD), antigen spotted on plate, Fab in solution; blank spot 239.
Assay [21] has as its target T2, rHuman Notch-1/Fc Chimera, CF (R&D …). The description is as above.
The target of assay [22] is T3, rHuman CD44/Fc Chimera, CF (R&D Systems …). The description is as above.
Assay [23] has as its target T4, rHuman P-Cadherin/Fc Chimera, CF (R&D …). The description is as above.
The target of assay [24] is T5, rHuman Erythropoietin R/Fc Chimera, CF …. The assay is described as above.
Assay [25] concerns the target T1, rHuman HGF R/c-MET/Fc Chimera, CF (R&D …). In words: ECL Multispot (MSD), antigen spotted on plate, Fab in solution; blank spot 206.
Assay [26] has as its target T2, rHuman Notch-1/Fc Chimera, CF (R&D …). Described as above.
Assay [27] concerns the target T3, rHuman CD44/Fc Chimera, CF (R&D Systems …). The description is as above.
Assay [28] deals with T4, rHuman P-Cadherin/Fc Chimera, CF (R&D …). The assay is described as above.
Assay [29] deals with T5, rHuman Erythropoietin R/Fc Chimera, CF …. The description is as above.
In assay [30] the target is T1, rHuman HGF R/c-MET/Fc Chimera, CF (R&D …). In words: ECL Multispot (MSD), antigen spotted on plate, Fab in solution; blank spot 200.
Assay [31] has as its target T2, rHuman Notch-1/Fc Chimera, CF (R&D …). The assay is described as above.
The target of assay [32] is T3, rHuman CD44/Fc Chimera, CF (R&D Systems …). Described as above.
For assay [33], the target named is T4, rHuman P-Cadherin/Fc Chimera, CF (R&D …). The assay is described as above.
The target in assay [34] is T5, rHuman Erythropoietin R/Fc Chimera, CF …. Described as above.

T1 sequence (P08581 25-932, change not shown): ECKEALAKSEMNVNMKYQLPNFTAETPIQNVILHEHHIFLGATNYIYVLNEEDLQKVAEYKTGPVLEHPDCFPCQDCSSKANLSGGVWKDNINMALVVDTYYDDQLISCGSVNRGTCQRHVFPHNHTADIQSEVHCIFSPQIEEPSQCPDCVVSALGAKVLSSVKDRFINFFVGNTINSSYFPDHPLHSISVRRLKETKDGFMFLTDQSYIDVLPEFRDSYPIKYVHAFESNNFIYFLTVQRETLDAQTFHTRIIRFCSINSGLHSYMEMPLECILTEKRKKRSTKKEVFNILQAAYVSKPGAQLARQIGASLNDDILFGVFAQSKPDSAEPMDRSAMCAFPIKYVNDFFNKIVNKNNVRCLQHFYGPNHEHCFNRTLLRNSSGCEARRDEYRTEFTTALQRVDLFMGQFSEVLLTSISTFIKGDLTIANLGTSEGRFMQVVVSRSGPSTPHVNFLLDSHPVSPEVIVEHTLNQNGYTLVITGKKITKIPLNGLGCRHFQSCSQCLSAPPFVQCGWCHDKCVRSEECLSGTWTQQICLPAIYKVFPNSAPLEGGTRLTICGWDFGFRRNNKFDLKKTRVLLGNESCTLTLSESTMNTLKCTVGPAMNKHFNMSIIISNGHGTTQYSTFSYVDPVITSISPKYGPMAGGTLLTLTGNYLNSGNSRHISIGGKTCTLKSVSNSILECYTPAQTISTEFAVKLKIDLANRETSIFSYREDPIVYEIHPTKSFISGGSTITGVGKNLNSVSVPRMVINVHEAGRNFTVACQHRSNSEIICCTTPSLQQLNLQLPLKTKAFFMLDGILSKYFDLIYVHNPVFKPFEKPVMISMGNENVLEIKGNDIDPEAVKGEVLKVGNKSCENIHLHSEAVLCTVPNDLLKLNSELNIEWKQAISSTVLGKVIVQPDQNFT

B1: Fab VH1-46_IGHD6-6*01_IGHJ1*01 S102A/S103P/S104F/H111F (APFF) & L6_IGKJ1*01 W94R (Fab, V domains shown)
VH: QVQLVQSGAEVKKPGASVKVSCKASGYTFTSYYMHWVRQAPGQGLEWMGIINPSGGSTSYAQKFQGRVTMTRDTSTSTVYMELSSLRSEDTAVYYCAREEYAPFSAEYFQFWGQGTLVTVSS
VL: EIVLTQSPATLSLSPGERATLSCRASQSVSSYLAWYQQKPGQAPRLLIYDASNRATGIPARFSGSGSGTDFTLTISSLEPEDFAVYYCQQRSNRPPWTFGQGTKVEIKR
notes: also called APFF / W94R
Take B1: the ECL signal in assay [1] stood at 293; in [2] it was 375; in [3], 443; in assay [4], 364; in assay [5], 546.

B2: Fab VH1-46_IGHD6-6*01_IGHJ1*01 S102A/S103P/S104F/H111F (APFF) & L6_IGKJ1*01 W94T (Fab, V domains shown)
VH: B1 VH
VL: B1 VL with R94T
notes: also called APFF / W94T
Consider B2, for which the ECL signal in assay [6] was 377; in assay [7], 418; in [8], 453; in assay [9], 481; in [10], 432.

B3: Fab VH1-46_IGHD6-6*01_IGHJ1*01 S102A/S103P/S104F/H111F (APFF) & L6_IGKJ1*01 N93H (Fab, V domains shown)
VH: B1 VH
VL: B1 VL with N93H, R94W
notes: also called APFF / N93H
B3: the ECL signal worked out at 342 in assay [11], 345 in [12], 293 in [13] and 425 in assay [14].

B4: Fab VH1-46_IGHD6-6*01_IGHJ1*01 S102A/S103P/S104F/H111F (APFF) & L6_IGKJ1*01 W94S (Fab, V domains shown)
VH: B1 VH
VL: B1 VL with R94S
notes: also called APFF / W94S
For B4, the ECL signal in assay [15] was 453; in assay [16] it was 486; in assay [17] it was 469; in assay [18], 466; in [19], 506.

B5: Fab VH1-46_IGHD6-6*01_IGHJ1*01 S102A/S103P/S104F/H111F (APFF) & L6_IGKJ1*01 N93Q (Fab, V domains shown)
VH: B1 VH
VL: B1 VL with N93Q, R94W
notes: also called APFF / N93Q
Take B5: the ECL signal was found to be 309 in assay [20]; 310 in assay [21]; 452 in assay [22]; 304 in assay [23]; 477 in assay [24].

B6: Fab VH1-46_IGHD6-6*01_IGHJ1*01 S102A/S103P/S104F/H111F (APFF) & L6_IGKJ1*01 N93S (Fab, V domains shown)
VH: B1 VH
VL: B1 VL with N93S, R94W
notes: also called APFF / N93S
Regarding B6, the ECL signal in [25] was 328; in assay [26], 345; in assay [27], 346; in [28], 321; in [29] it was 420.

B7: Fab VH1-46_IGHD6-6*01_IGHJ1*01 S102A/S103P/S104F/H111F (APFF) & L6_IGKJ1*01 W94L (Fab, V domains shown)
VH: B1 VH
VL: B1 VL with R94L
notes: also called APFF / W94L
On to B7, for which the ECL signal worked out at 187 in [30]; 369 in assay [31]; 309 in assay [32]; 296 in assay [33]; 333 in assay [34].
